Experiments:
PaCrtI = target: T1, PaCrtI (Pantoea ananatis, UniProt P21685); test: in vivo lycopene flux vs intracellular phytoene in yeast strains, Michaelis-Menten fit; format: cell-based; conditions: read-out: K1/2cell; in living S. cerevisiae, exponential growth, 28 °C, medium pH 5.0; TDH3p expression; total intracellular substrate concentration; lower limit only, no saturation
T1 construct: gene crtI; full-length, yeast codon-optimized synthetic gene, expressed in Saccharomyces cerevisiae under TDH3p; V5 tag (CrtI-V5 in western blot)

[1] = system: CC(C)=CCC/C(C)=C/CC/C(C)=C/CC/C(C)=C/COP(=O)(O)OP(=O)(O)O; test: cells, lysate or membranes; conditions: in living S. cerevisiae, exponential growth, 28 °C, medium pH 5.0, PGI1p expression, total intracellular substrate concentration, partial saturation
[2] = substrate: CC(C)=CCC/C(C)=C/CC/C(C)=C/CC/C(C)=C/C=C\C=C(/C)CC/C=C(\C)CC/C=C(\C)CCC=C(C)C; test: in vivo lycopene flux vs intracellular phytoene in yeast strains, Michaelis-Menten fit; format: cell-based, Blakeslea trispora; conditions: in living S. cerevisiae, exponential growth, 28 °C, medium pH 5.0, PGI1p expression, total intracellular substrate concentration, enzyme level slightly higher in low-phytoene strains
[3] = substrate: CC(C)=CCC/C(C)=C/CC/C(C)=C/CC/C(C)=C/C=C\C=C(/C)CC/C=C(\C)CC/C=C(\C)CCC=C(C)C; test: as above; format: cell-based, Phaffia rhodozyma; conditions: in living S. cerevisiae, exponential growth, 28 °C, medium pH 5.0, PGK1p expression, total intracellular substrate concentration

T1 sequence (P21685 whole entry): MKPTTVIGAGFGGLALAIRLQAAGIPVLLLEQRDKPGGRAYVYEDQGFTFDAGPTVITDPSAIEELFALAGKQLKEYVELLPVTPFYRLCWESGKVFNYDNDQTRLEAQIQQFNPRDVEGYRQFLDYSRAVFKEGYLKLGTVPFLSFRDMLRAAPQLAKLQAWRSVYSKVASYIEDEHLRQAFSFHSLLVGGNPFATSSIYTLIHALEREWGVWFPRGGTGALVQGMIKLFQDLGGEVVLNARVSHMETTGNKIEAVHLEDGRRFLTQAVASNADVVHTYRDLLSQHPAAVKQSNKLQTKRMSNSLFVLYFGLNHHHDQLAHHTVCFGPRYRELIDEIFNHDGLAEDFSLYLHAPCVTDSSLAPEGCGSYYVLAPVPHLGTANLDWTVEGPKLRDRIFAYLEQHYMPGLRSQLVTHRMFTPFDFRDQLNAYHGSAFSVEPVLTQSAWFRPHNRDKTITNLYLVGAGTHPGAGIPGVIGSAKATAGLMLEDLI

`CC(C)=CCC/C(C)=C/CC/C(C)=C/CC/C(C)=C/C=C\C=C(/C)CC/C=C(\C)CC/C=C(\C)CCC=C(C)C` [phytoene] was tested, and the Km (PaCrtI) was > 560 µM.

Molecule PaCrtB (Pantoea ananatis) has a K0.5 [1] of 19 ± 3 µM and a kcat [1] of 6 ± 1 s⁻¹.

B1: BtCrtI (Blakeslea trispora) (protein)
chain: MSDQKKHIVVIGAGIGGTATAARLAREGFRVTVVEKNDFSGGRCSFIHHDGHRFDQGPSLYLMPKLFEDAFADLDERIGDHLDLLRCDNNYKVHFDDGDAVQLSSDLTKMKGELDRIEGPLGFGRFLDFMKETHVHYEQGTFIAIKRNFETIWDLIRLQYVPEIFRLHLFGKIYDRASKYFQTKKMRMAFTFQTMYMGMSPYDAPAVYSLLQYTEFAEGIWYPRGGFNMVVQKLESIASKKYGAEFRYQSPVAKINTVDKDKRVTGVTLESGEVIEADAVVCNADLVYAYHHLLPPCNWTKKTLASKKLTSSSISFYWSMSTKVPQLDVHNIFLAEAYKESFDEIFNDFGLPSEASFYVNVPSRIDESAAPPNKDSIIVLVPIGHMKSKTGNSAEENYPELVNRARKMVLEVIERRLGVNNFANLIEHEEVNDPSVWQSKFNLWRGSILGLSHDVFQVLWFRPSTKDSTNRYDNLFFVGASTHPGTGVPIVLAGSKLTSDQVCKSFGQNPLPRKLQDSQKKYAPEQTSKTESHWIYYCLACYFVTFLFFYFFPRDDTTTPASFINQLLPNVFQVQNSNDIRI
notes: full-length, yeast codon-optimized synthetic gene, expressed in Saccharomyces cerevisiae under PGI1p; V5 tag (CrtI-V5 in western blot)
For B1, the K0.5 [2] was 41 ± 12 µM.

B2: XdCrtI (Phaffia rhodozyma) (protein)
chain: MGKEKDQDKPTAIIVGCGIGGIATAARLAKEGFQVTVFEKNDYSGGRCSLIERDGYRFDQGPSLLLLPDLFKQTFEDLGEKMEDWVDLIKCEPNYVCHFHDEETFTLSTDMALLKREVERFEGKDGFDRFLSFIQEAHRHYELAVVHVLQKNFPGFAAFLRLQFIGQILALHPFESIWTRVCRYFKTDRLRRVFSFAVMYMGQSPYSAPGTYSLLQYTELTEGIWYPRGGFWQVPNTLLQIVKRNNPSAKFNFNAPVSQVLLSPAKDRATGVRLESGEEHHADVVIVNADLVYASEHLIPDDARNKIGQLGEVKRSWWADLVGGKKLKGSCSSLSFYWSMDRIVDGLGGHNIFLAEDFKGSFDTIFEELGLPADPSFYVNVPSRIDPSAAPEGKDAIVILVPCGHIDASNPQDYNKLVARARKFVIQTLSAKLGLPDFEKMIVAEKVHDAPSWEKEFNLKDGSILGLAHNFMQVLGFRPSTRHPKYDKLFFVGASTHPGTGVPIVLAGAKLTANQVLESFDRSPAPDPNMSLSVPYGKPLKSNGTGIDSQVQLKFMDLERWVYLLVLLIGAVIARSVGVLAF
notes: full-length, gene amplified from a plasmid, expressed in Saccharomyces cerevisiae under PGK1p; V5 tag (CrtI-V5 in western blot)
B2 showed a K0.5 [3] of 380 ± 49 µM and a kcat [3] of 0.030 ± 0.006 s⁻¹.

— article PMC11535393, “Combining systems and synthetic biology for in vivo enzymology” (The EMBO Journal, 2024)
